Molecular target: Thr315Ala variant of the catalytic domain of ICR^Mc (ICR^Mccat^Thr315Ala) (Moraxella catarrhalis strain BC1)
Assay: crystal structure

Substance: Thr315Ala variant of the catalytic domain of ICR^Mc (ICR^Mccat^Thr315Ala) (domain or fragment)
- stoichiometry N: 2

— PMC6197822
